Measurements as given in the DeepSol protein solubility set.

Test: soluble on expression in E. coli; label from the status in PepcDB or PDB records

Sequence	soluble on expression in E. coli
MGSDKIHHHHHHMTLGTKLSVDQEYLKSFSEKHQEPAWLKNLRLQALEQAEDLPMPKPDKTKITNWNFTNFAKHTVDNEPLSSLEDLTDEVKALIDIENEDKTLYVQRDQTPAHLSLSQELKDKGVIFTDILTAAREHSDLVEKYFMKDGVKVDEHKLTALHAALVNGGAFLYVPKNVQVETPVQAVYVHESNDTALFNHVLIVAEDHSSVTYVENYISTVNPKDAVFNIISEVITGDNASVTYGAVDNLSSGVTTYVNRRGAARGRDSKIEWALGLMNDGDTISENTTNLYGDGTYGDTKTVVVGRGEQTENFTTQIIHFGKASEGYILKHGVMKDSASSIFNGIGKIEHGASKANAEQESRVLMLSEKARGDANPILLIDEDDVTAGHAASVGRVDPIQLYYLMSRGIPKEEAERLVIYGFLAPVVNELPIEGVKKQLVSVIERKVK	not soluble
MGSDKIHHHHHHMTLSFVTRWRDELPETYTALSPTPLNNARLIWHNTELANTLSIPSSLFKNGAGVWGGEALLPGMSPLAQVYSGHQFGVWAGQLGDGRGILLGEQLLADGTTMDWHLKGAGLTPYSRMGDGRAVLRSTIRESLASEAMHYLGIPTTRALSIVTSDSPVYRETAEPGAMLMRVAPSHLRFGHFEHFYYRRESEKVRQLADFAIRHYWSHLADDEDKYRLWFSDVVARTASLIAQWQTVGFAHGVMNTDNMSLLGLTLDYGPFGFLDDYEPGFICNHSDHQGRYSFDNQPAVALWNLQRLAQTLSPFVAVDALNEALDSYQQVLLTHYGERMRQKLGFMTEQKEDNALLNELFSLMARERSDYTRTFRMLSLTEQHSAASPLRDEFIDRAAFDDWFARYRGRLQQDEVSDSERQQLMQSVNPALVLRNWLAQRAIEAAEKGDMTELHRLHEALRNPFSDRDDDYVSRPPDWGKRLEVSCSS	not soluble
MGSDKIHHHHHHMTLYLGIDTSAYTTSLAIVDEQAELVYENRKILTVPEGERGLAQSAALFQHVQNLPQLVTAVPPQYWEKVSALGVSTAPRPIQESYMPVFLPGYGVAAAMASARCIPLVETSHQEGHLAAGIASSKLKEPHFLAIHISGGTTELLEVHHTQPGKLDIQLLGGTTDLHAGQFVDRVGVRLGLPFPAGKSLEELARQADPGAAAWLPSAVRGFEVSFSGVETAAQRLIDQGKNPADVARAVEGCIVRTLGKLLQAGMEKTTLSEILIVGGVASNQFIRQELKKRLARHANLHWAEPDWSRDNAIGVALLALEKVRGCII	not soluble
MGSDKIHHHHHHMTNKNYLLYVDNEKYVLRLPGVMTSNLISRHYEMNNSILMSQAEFNVETIYFNADNGIKITKFLEKGINFNHNNIHQYEYLFLISKELYKLHHSDIQFNNEFNVFETFQQYFDLLKDKNGFFCFNKNIPLIYEFFIKISKNNSFYNIKCPCHNDLVPENILLKNNKLFFIDWEYSGMNAPLFDVAAFFLESRIPKEKQKYFLAHYDHHLDFEKSRMEILFHQFTQDVLWFLWTLIKEENNETFENYASIRINRAYELMKDLVKNEVI	not soluble
MGSDKIHHHHHHMTNTIMEQEARTAPQKIAGQLAANADLMQQLGEKLRAFDPRFVMIVGRGSSDHAGVFAKYLFEIEVGVPTFAAAPSVASVYGKTLKLEGGLVIVISQSGRSPDILAQARMAKNAGAFCVALVNDETAPIKDIVDVVVPLRAGEEKAVAATKSYLATLSAILQLASAWTQSESLAAAVSSLPQALQTAVVAEPQLTPESVENVKNLVVLGRGLGYAVSKEIALKLKEVCSIHAEAFSSAEFLHGPVTLVEKKLTIVDVCIGDESYASHIEQIENVSQRGADLVHLNQTSTDIHPRVAPLALLQRFYIDVAAVAIARGIDPDQPAGLKKVTQTL	not soluble
MGSDKIHHHHHHMTPAAVGQLVRTLEDWLGFPLFHRQTNGKNRLVATELAESVLPDIRAGFDKLTLALEKLKQDSLSGVLNIAVSPAFAEKWLLPRIDHFQKQYPDIDIRLDINLKTVDFLEQKVDVGVRYGQGQWQGLEAVKLMDEEVYPVCSPAFLNEHSFLLTPNDLKNITLIHDLSMEKHQQFPGWQSWLKSVGLNDINISRGMQINSSSAVLQAAMEGHGVALARSVMVQKDIQTGRLIRLFPQINFSSPFSYYLVYRPQYANLPKVKICLDWFFEEIHRI	not soluble
MGSDKIHHHHHHMTPNIYQQLGLKKVINACGKMTILGVSSVAPEVMQATARAASAFVEIDALVEKTGELVSRYTGAEDSYITSCASAGIAIAVAAAITHGDRARVALMPDSSGMANEVVMLRGHNVDYGAPVTSAIRLGGGRIVEVGSSNLATRWQLESAINEKTAALLYVKSHHCVQKGMLSIDDFVQVAQANHLPLIVDAAAEEDLRGWVASGADMVIYSGAKAFNAPTSGFITGRKTWIAACKAQHQGIARAMKIGKENMVGLVYALENYHQGQTTVTAAQLQPVAEAISAIHGLYADIEQDEAGRAIWRIRVRVNASELGLNAQDVEAQLRGGEIAIYARKYQLHQGVFSLDPRTVAEGEMALIVARLREIAEHAAD	not soluble
MGSDKIHHHHHHMTPTLPDRKQNPPSAPAATVSLRLLEIFMLVAQEGSVSAAANRLNLTQAAVSQAITVLEQALDVKLLDRSVRPPLLTLRGSTALQYAREILAKVHEFEDAMRYSGSGRVPLLRIGMLNSFASTAGAFVLNQLRDIAAEWTVASGFRETCIQALLDRQSDVIITTDETPAPSEIEVFPIFSEPFVAVVPASFDGKTERLQDIADKLDFIHYGHDSHMGSKITNYLKKIGTVPARRYQFDTTDAALHMVAGGFGWAIVTPLIYLKSRVEGSGVRVVPLTRLPIHRTFIVGMRRGEGSDIAQRVRTAAIITLRDVILPQIEAVLPEASKGVSVAEIEPKASTGKRKGSRRDSAGS	not soluble
MGSDKIHHHHHHMTQKTLPPLNWLRAFEVSARYLNFTHAAEELHLTQGAVSQQIRHLESQLGVALFKRLPRGLGLTEEGQSYLPVVQDAISRLAVGTNEIFGQRQRRPLKVRGSLSFLHFWLAPRLADFRRSHPQVDIRYISNLWVKELDAEDDLEIRWGSGQWAGVEAQRLTRDMLVPVCAPALLAGCPLREPRDLARVPLLHVLGYEEGWGYWLERVGADQVDSSSGLQFDTLVSTLRMAELGLGVALARSSLVEDLLQEGRLVAPFAQRIEASESFFLVRGLGEALSPDAQAFSHWLVAMAHR	not soluble
MGSDKIHHHHHHMTQMEMARKGVVSDEMKKVAEYEGVDVEIVRQKLAEGRAVLPKNKLHRIERPMIVGEGFSVKVNANIGTSQGFSSLEEEKEKARVAIEYGADSLMVLSTWGDLREIRRAIVEMSPVPVGSVPIYDSAVRSYQMKKNVVDFSEKDFFDMVIAHAEDGIDFMTIHVGVTRRVLDRIKSSRRVLKIVSRGGAIIAGWMIKNNKENPFYEHFDELLDIAKDYDITLSLGDGMRPGAVVDASDAQQFEELFVMGELVERAREKGVQVMLEGPGHVPLNEVEMNVRLMKKIGKGAPIFLLGPLPTDRAMGYDHIACAIGGALAGYYGADFLCYVTPSEHISLPDVEDVREGVIASKIAAIVADVARGNKKAWELEKKMALARKNFDWETMFSLSLGKDVAKKKYEERPYPDKGCSMCGPFCAIKIAEEFS	not soluble
MGSDKIHHHHHHMTQTDSLPGVQATVQDMGERARRAARVLRSLPTGRKVQALRALAAELRAREAGILAANAQDVQAAEAAGLPAPLVDRLRLSAGALAAIARDVEAVAALPDPVGEQTDEKTLPSGIRVSQRRVPLGVLGVIYESRPNVTVDVAALALMSGNAAILRGGKETVNSNAALEDAIHAALNREGLPADAVQVIRDPDRARMLELLRLDESVDAIIPRGGAGLHRFCVENATVPVIVGGIGVVHIYLDGSFVQTPQDVQIAAALIRNAKTQKPSACNALDTLLIDRAALAALPDVVRPLLESGVEVRADAEAQAALAGAGLNVTSAQLGDYGTEFLALVASLRTVSGLDEALDFIAERGGHTDVILTRDPAQAERFVQDVDSAAVMVNVSPRFNDGGQLGLGAEVAISTQKLHARGPMGLRELTTSKWVVRGEGQVRD	not soluble
MGSDKIHHHHHHMTRRGMEFYEKAQELVKGFDIFQNQYANPEEEKDEFSIASQHYDFLPPTITAFSERYPDYKNFRIFESTTVQILDEVAQGHSEIGIIYLNNQNKKGIMQRVEKLGLEIIELISFHTHIYLREGHPLAQKEELVMEDLADLPTVRFTQEKDEYLYYSENFVDTSASSQMFNVTDRATLNGILERTDAYATGSGFLDSDSVNGITVIRLKDNLDNRMVYVKREEVELSQAGTLFVEVMQEYFNQKRKS	not soluble
MGSDKIHHHHHHMTSNGQQGKPNLPEKDNLPRELGTQRINSPIARMGMFGAKTTGDTSGYGRLRVYRHVPAAAQRPYSDPSDPRTAYFDEVADALERSLKEIGTPYDTAISRVVVDRGEITFHVQREHLLDVATRLRDDPALRFELCLGVTGVHYPEDEGNELHAVYALRSITHNYEIRLEVSCPDSDPHIPSIVSVYPTNDWHEREAWDFFGIIFDGHPALTRIHMPDDWHGHPQRKDYPLGGIPVEYRGAKVPPPDQRRSYA	not soluble
MGSDKIHHHHHHMTSPHSFSVTPIRTMADGTIKQIHPFTGTEVWTVPGRGNRPLSHPASTIVELSAHDHTSYCAFCSDNMLSTPPEKSRIIIDSSGDFDILPGALPGELSETTPEFRRVPNLFEIVSFDYWHQNFGFDMDSETAMRMAQYLAIPEGREHVLAIVRTRLSAAGEDPAHMTDGELLEKAPSYFAGGHDVIIGRRHFVDDATTSDQLASSGTLTVKEHEAFIRLTVDGIRDLYHRNRYAPYVVAFQNWLKPAGASFDHLHKQLVAIDERGRLIADELHHLRGNPNMYNELAVDYAGYHNLIIAENDHAVAFAGFGHRYPTIEIYSKSAIPEPWLQSDEEIQAMSNLIHACHAATGADVPCNEEWVHKPIDVDMPMPWHVMIKWRVSTLAGFEGGTKVYLNTLSPHKVRDRVVKEMYRLRDEELIASDLRIAMECSVERNSLKYNPLL	not soluble
MGSDKIHHHHHHMTTDNAKAQLTSSSGGNIIVVSNRLPVTITKNSSTGQYEYAMSSGGLVTALEGLKKTYTFKWFGWPGLEIPDDEKDQVRKDLLEKFNAVPIFLSDEIADLHYNGFSNSILWPLFHYHPGEINFDENAWLAYNEANQTFTNEIAKTMNHNDLIWVHDYHLMLVPEMLRVKIHEKQLQNVKVGWFLHTPFPSSEIYRILPVRQEILKGVLSCDLVGFHTYDYARHFLSSVQRVLNVNTLPNGVEYQGRFVNVGAFPIGIDVDKFTDGLKKESVQKRIQQLKETFKGCKIIVGVDRLDYIKGVPQKLHAMEVFLNEHPEWRGKVVLVQVAVPSRGDVEEYQYLRSVVNELVGRINGQFGTVEFVPIHFMHKSIPFEELISLYAVSDVCLVSSTRDGMNLVSYEYIACQEEKKGSLILSEFTGAAQSLNGAIIVNPWNTDDLSDAINEALTLPDVKKEVNWEKLYKYISKYTSAFWGENFVHELYSTSSSSTSSSATKN	not soluble
MGSDKIHHHHHHMTTDYRLTSDADREAFYQLYQYAFNNHDTPARRRFFMDRYQHGWIYGRHDHGQLVSGLYSLPLAVNFHGVTYRMNGIGDVMSAPEYAGQGGAGQLLTTALTEMAANHVTLSYLAPFAYGYYRRFGYEHVFNHAHQVMAAPDLPRVKPTDWSGTITRYGNDGLAQINDFYARQPQNQCGGLIRPAWWQHYLTLKHHWSVAIYRNAAANIEGYLIYERQATNFAIQEWVTSTPTAFERLANFITKHGTTFETFSYDSPSATNGLDLLADPYRLKVTVQPYMMARIVDLYDFIKRYPFLTDIQPIRLAVSDATLPANQGIWSLTRHNGQVTLNRVSDQLTGPADIQLTIQQLTTACFGTQSLARAYQHGLITGDVNAINRLDTSLVKERPALIDYF	not soluble
